1 molecule from PMC4800742 can be followed below.

In this series the target is T1, RanGAP1 (human, UniProt P46060 1-587).
T1 sequence: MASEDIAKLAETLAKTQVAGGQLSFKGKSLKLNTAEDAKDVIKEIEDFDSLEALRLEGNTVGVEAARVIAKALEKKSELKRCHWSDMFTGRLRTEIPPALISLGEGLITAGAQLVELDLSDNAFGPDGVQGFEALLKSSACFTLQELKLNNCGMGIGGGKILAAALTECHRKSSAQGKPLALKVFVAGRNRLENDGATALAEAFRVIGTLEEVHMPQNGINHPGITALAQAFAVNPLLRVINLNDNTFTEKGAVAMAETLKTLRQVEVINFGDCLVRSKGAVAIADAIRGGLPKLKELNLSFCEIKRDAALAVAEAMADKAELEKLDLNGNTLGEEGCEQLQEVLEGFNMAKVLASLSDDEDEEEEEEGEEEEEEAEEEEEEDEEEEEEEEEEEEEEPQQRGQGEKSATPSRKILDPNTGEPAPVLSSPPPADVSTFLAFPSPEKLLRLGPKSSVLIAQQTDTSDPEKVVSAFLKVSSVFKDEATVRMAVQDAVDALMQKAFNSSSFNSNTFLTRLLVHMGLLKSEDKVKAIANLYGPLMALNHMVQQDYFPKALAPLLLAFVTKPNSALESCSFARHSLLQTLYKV
As to the kind of experiment: EMSA. A general note: In EMSA bound probe runs differently from free probe, usually more slowly.

Consider GGGGCCGGGGCCGGGGCCGGGGCC (structured_RNA) [(G4C2)4 G-quadruplex], for which the “apparent K (half saturation)” value was found to be 162 nM.
